Experimental findings from patent US20190065668A1, “STRUCTURE OF […] IN COMPLEX WITH AN INHIBITOR AND USES THEREOF” (priority 2015, published 2019) are described below.

The target of experiment [1] is recombinant P. falciparum plasmepsin V (residues N80-R528) (Plasmodium falciparum) (UniProt Q8I6Z5). The experiment in a line: cell-based or functional assay.
In experiment [2] the target is recombinant P. vivax plasmepsin V (residues R35-R476), N-terminal fusion tag removed with TEV protease (Plasmodium vivax) (UniProt A5K302). The experiment in a line: cell-based or functional assay.
Sequence of recombinant P. vivax plasmepsin V (residues R35-R476), N-terminal fusion tag removed with TEV protease (Plasmodium vivax) (A5K302 35-476, tags or fused parts left off): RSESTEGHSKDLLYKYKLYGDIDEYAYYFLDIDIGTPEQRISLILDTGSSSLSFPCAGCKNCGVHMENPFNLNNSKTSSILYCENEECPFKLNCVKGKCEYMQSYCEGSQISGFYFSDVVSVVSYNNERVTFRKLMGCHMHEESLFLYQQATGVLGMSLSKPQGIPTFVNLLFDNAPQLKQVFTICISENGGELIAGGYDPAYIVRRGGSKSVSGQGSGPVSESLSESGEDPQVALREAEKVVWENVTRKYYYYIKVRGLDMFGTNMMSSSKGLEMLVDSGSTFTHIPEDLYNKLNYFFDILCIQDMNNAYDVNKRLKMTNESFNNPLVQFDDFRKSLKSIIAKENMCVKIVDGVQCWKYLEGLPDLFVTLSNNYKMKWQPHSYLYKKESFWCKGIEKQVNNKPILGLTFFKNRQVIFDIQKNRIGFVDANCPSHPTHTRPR
Experiment [3] has the same target. The experiment in a line: SPR, Biacore 4000, plasmepsin V amine-coupled on a CM5 chip, 1:1 fit.
The target is the same in experiment [4]. The experiment in a line: SPR, Biacore 4000, plasmepsin V amine-coupled on a CM5 chip, compound as analyte, 1:1 fit, 25 °C. On the technique in general: SPR reads the build-up and loss of mass on a sensor chip optically.
Experiment [5] shares this target. The experiment is described as follows: SPR, Biacore 4000, plasmepsin V amine-coupled on a CM5 chip.

Sequence of recombinant P. falciparum plasmepsin V (residues N80-R528) (Plasmodium falciparum) (Q8I6Z5 80-528): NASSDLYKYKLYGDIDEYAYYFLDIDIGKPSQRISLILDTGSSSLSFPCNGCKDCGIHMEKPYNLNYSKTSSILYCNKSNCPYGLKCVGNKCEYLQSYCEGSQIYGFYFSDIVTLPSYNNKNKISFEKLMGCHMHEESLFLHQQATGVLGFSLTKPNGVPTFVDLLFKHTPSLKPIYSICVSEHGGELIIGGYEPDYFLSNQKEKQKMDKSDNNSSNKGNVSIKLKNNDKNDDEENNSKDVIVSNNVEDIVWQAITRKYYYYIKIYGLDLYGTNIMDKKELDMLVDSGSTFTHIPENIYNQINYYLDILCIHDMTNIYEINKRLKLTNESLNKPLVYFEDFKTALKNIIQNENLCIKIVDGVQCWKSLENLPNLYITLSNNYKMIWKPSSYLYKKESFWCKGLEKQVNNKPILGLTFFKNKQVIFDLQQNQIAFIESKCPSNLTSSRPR

For orientation: koff means the first-order rate constant of dissociation. In general, Kd refers to the concentration at which binding is half-saturated. In the case of WEHI-916 (peptide), the figures for the IC50, inhibition of cleavage of the fluorogenic KAHRP PEXEL peptide in experiment [1] and in experiment [2] were 12.9 nM and 8.2 nM, respectively. Further, in experiment [3], the koff worked out at 0.00247 s⁻¹. Also, the Kd in experiment [4] stood at 42 nM.
As to “WEHI-842, Cbz-Cav(NH2)-Val-Sta-NH(CH2)2Ph.TFA (peptide)”, the IC50, inhibition of cleavage of the fluorogenic KAHRP PEXEL peptide in experiment [2] came to 1.6 nM. Further, in experiment [5], the fold affinity against WEHI-916 was more than 2 fold. In addition, in experiment [3], the off-rate (koff) stood at 0.00111 s⁻¹. Also, the Kd in experiment [4] stood at 13.4 nM.
